The values that follow come from patent US20150274802A1.

Assay [1] deals with type A insulin receptor (UniProt P06213). The experiment in a line: cell-based or functional assay.
For assay [2] the target is unchanged. Nature of the assay: competitive binding SPA, [125I]insulin.
A further assay addresses type B insulin receptor (UniProt P06213). Nature of the assay: cell-based or functional assay.
Assay [3] concerns the target type A insulin receptor (UniProt P06213). The experiment in a line: binding assay.

Turning to “#48: Cys^B1-Cys^B1 #2* dimer, B^1[C1H5Y16L17O22R29]29:A^1[O9,14,15N18,21] (ligand)”, the % receptor activity, phosphorylation assay in the assay with type A insulin receptor [1] is 102%. The % receptor activity (binding assay) in the assay with type A insulin receptor [2] was determined as 147%.

In the case of “#31: IGF-2 analog B^2-C^2[K8]-A^2-D^2[R4] (from UniProt P01344 25-91) (ligand)”, the potency with type A insulin receptor [1] and in the assay with type B insulin receptor was 2 fold throughout.

On to “Cys-Cys^B1 peptide (analog #2* with Cys^B1 disulfide-bonded to free cysteine) (ligand)”, for which the % activity, phosphorylation assay with type A insulin receptor [1] stood at 23.1%. For the same substance, the % activity (binding assay) in the assay with type A insulin receptor [2] was 55.4%.

“Insulin analog B^1[H5Y16L17O22R29]29:A^1[O9,14,15N18,21] (ligand)” showed a % activity (binding assay) in the assay with type A insulin receptor [3] of 55%.
